The results in this text go back to article PMC9166362, “Early midcell localization of Escherichia coli PBP4 supports the function of peptidoglycan amidases” (PLoS Genetics, 2022).

Experiment [1] addresses EnvC, soluble version without the N-terminal 34 amino acid signal peptide (E. coli) (UniProt P37690). The experiment in a line: MST; one protein fluorescently labelled (NT-647 dye) at a fixed concentration, two-fold serial dilution of unlabelled ligand over 16 samples; 25 mM HEPES/NaOH, 150 mM NaCl, 0.05% Triton X-100, pH 7.5; Monolith NT.115; apparent KD.
Experiment [2] addresses LpoA, soluble (LpoAΔ1–27) (E. coli) (UniProt P45464). The description is as above.
The target of experiment [3] is PBP4 (penicillin binding protein 4, DD-carboxy/endopeptidase), purified, untagged (E. coli) (UniProt P24228). In words: AUC; sedimentation velocity, 45,000 rpm, 20°C, 25 mM HEPES/NaOH, 150 mM NaCl, pH 7.5, about 0.25 to 1.4 mg/ml; c(s) analysis.
The target in experiment [4] is LpoA^N, N-terminal domain of LpoA (residues G28-T256) (E. coli) (UniProt P45464). In words: MST; one protein fluorescently labelled (NT-647 dye) at a fixed concentration, two-fold serial dilution of unlabelled ligand over 16 samples; 25 mM HEPES/NaOH, 150 mM NaCl, 0.05% Triton X-100, pH 7.5; Monolith NT.115; apparent KD.
Experiment [5] concerns the target PBP4ΔD3 (PBP4 lacking domain 3), His-tagged (E. coli) (UniProt P24228). In words: AUC; sedimentation velocity, 45,000 rpm, 20°C, 25 mM HEPES/NaOH, 150 mM NaCl, pH 7.5, about 0.25 to 1.4 mg/ml; c(s) analysis.
The target in experiment [6] is T1, PBP4 (penicillin binding protein 4, DD-carboxy/endopeptidase), purified, untagged (E. coli, UniProt P24228 61-477).
T1 chain: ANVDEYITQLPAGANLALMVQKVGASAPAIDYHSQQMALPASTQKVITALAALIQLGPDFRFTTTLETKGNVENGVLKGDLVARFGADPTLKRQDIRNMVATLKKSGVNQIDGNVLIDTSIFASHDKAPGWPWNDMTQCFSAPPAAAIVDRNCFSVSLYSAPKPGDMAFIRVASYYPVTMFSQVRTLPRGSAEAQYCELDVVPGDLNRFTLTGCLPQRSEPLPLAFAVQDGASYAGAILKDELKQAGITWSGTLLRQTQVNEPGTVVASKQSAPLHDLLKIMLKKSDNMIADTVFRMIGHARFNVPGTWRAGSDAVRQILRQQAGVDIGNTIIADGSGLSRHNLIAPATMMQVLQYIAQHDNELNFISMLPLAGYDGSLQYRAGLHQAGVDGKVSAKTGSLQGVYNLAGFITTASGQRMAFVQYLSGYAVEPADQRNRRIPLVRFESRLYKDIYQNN
In words: MST.

In experiment [7] the target is PBP4ΔD3 (PBP4 lacking domain 3), His-tagged (E. coli, UniProt P24228 21-477, PBP4Δ173–247 (domain 3)). The experiment in a line: MST.
In experiment [8] the target is T2, EnvC, soluble version without the N-terminal 34 amino acid signal peptide (E. coli, UniProt P37690 35-419).
T2 construct: EnvC of E. coli, soluble version without the N-terminal, 34 amino acid long, signal peptide; the text calls it full-length EnvC; In MST fluorescently labelled (Fl-EnvC) in some runs; also called full-length EnvC; Fl-EnvC; source: E. coli BL21(DE3) pET28a-His-EnvC, purified (HisTrap, thrombin, Superdex 200)
T2 sequence (looked up): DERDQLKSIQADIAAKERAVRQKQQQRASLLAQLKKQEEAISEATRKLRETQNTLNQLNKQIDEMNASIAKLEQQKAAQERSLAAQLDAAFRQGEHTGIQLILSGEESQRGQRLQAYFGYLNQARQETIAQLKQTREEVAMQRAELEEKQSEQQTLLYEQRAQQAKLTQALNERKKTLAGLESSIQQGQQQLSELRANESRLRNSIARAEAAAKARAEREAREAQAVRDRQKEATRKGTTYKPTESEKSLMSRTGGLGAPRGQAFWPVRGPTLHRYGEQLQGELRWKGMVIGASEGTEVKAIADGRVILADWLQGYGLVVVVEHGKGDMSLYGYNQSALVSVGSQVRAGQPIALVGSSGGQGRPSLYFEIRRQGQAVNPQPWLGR
The experiment in a line: MST; one protein fluorescently labelled (NT-647 dye) at a fixed concentration, two-fold serial dilution of unlabelled ligand over 16 samples; 25 mM HEPES/NaOH, 150 mM NaCl, 0.05% Triton X-100, pH 7.5; Monolith NT.115; apparent KD. Particulars: both partners purified.

The target in experiment [9] is T2, EnvC, soluble version without the …. In words: pull-down; Ni-NTA beads; equimolar (1–2 μM) His-tagged and untagged proteins; 10 mM HEPES/NaOH, 10 mM MgCl2, 150 mM NaCl, 0.05% Triton X-100, pH 7.5, 4°C; washes with 30 mM imidazole; SDS-PAGE; His-NlpI also with PBP4 and EnvC together. Particulars: both partners purified.

As for “PBP4 (penicillin binding protein 4, DD-carboxy/endopeptidase), purified, untagged (from UniProt P24228 61-477) (enzyme)”, the figures for the Kd in experiment [1] and in experiment [2] were 0.307 µM and 0.315 µM, respectively. Moreover, the stoichiometry N in experiment [3] was found to be 2.

Take “PBP4ΔD3 (PBP4 lacking domain 3), His-tagged (from UniProt P24228 21-477) (enzyme)”: the fold decrease of app. KD against PBP4 in [4] was 50 fold. Moreover, the Kd was above 5.9 µM in experiment [1] and 0.153 µM in experiment [2]. The molecule also registered a stoichiometry N in [5] of 2.

B1: LpoA^C, C-terminal domain of LpoA (residues N257-S678) (domain or fragment)
chain: NKIALLLPLNGQAAVFGRTIQQGFEAAKNIGTQPVAAQVAAAPAADVAEQPQPQTVDGVASPAQASVSDLTGEQPAAQPVPVSAPATSTAAVSAPANPSAELKIYDTSSQPLSQILSQVQQDGASIVVGPLLKNNVEELLKSNTPLNVLALNQPENIENRVNICYFALSPEDEARDAARHIRDQGKQAPLVLIPRSSLGDRVANAFAQEWQKLGGGTVLQQKFGSTSELRAGVNGGSGIALTGSPITLRATTDSGMTTNNPTLQTTPTDDQFTNNGGRVDAVYIVATPGEIAFIKPMIAMRNGSQSGATLYASSRSAQGTAGPDFRLEMEGLQYSEIPMLAGGNLPLMQQALSAVNNDYSLARMYAMGVDAWSLANHFSQMRQVQGFEINGNTGSLTANPDCVINRNLSWLQYQQGQVVPVS
On to B1, for which the Kd in experiment [6] was 0.226 µM; in experiment [7] it was 0.315 µM.

B2: NlpI, soluble, as used in microscale thermophoresis (natural protein, E. coli, UniProt P0AFB1 19-294, looked up)
chain: CSNTSWRKSEVLAVPLQPTLQQEVILARMEQILASRALTDDERAQLLYERGVLYDSLGLRALARNDFSQALAIRPDMPEVFNYLGIYLTQAGNFDAAYEAFDSVLELDPTYNYAHLNRGIALYYGGRDKLAQDDLLAFYQDDPNDPFRSLWLYLAEQKLDEKQAKEVLKQHFEKSDKEQWGWNIVEFYLGNISEQTLMERLKADATDNTSLAEHLSETNFYLGKYYLSLGDLDSATALFKLAVANNVHNFVEHRYALLELSLLGQDQDDLAESDQQ
notes: NlpI, outer membrane lipoprotein of E. coli, 'Soluble NlpI construct'; In some MST runs fluorescently labelled (Fl-NlpI); also called Fl-NlpI; source: purified from overexpression strain according to published procedures [55]; (plasmid pET28a-His-NlpI)
Consider B2, for which the binding result in [8] is recorded as “binds”. In addition, in experiment [6], the Kd was found to be 0.177 µM.

B3: His-NlpI (oligo-histidine tagged soluble NlpI) (natural protein, E. coli, UniProt P0AFB1 19-294, looked up)
chain: CSNTSWRKSEVLAVPLQPTLQQEVILARMEQILASRALTDDERAQLLYERGVLYDSLGLRALARNDFSQALAIRPDMPEVFNYLGIYLTQAGNFDAAYEAFDSVLELDPTYNYAHLNRGIALYYGGRDKLAQDDLLAFYQDDPNDPFRSLWLYLAEQKLDEKQAKEVLKQHFEKSDKEQWGWNIVEFYLGNISEQTLMERLKADATDNTSLAEHLSETNFYLGKYYLSLGDLDSATALFKLAVANNVHNFVEHRYALLELSLLGQDQDDLAESDQQ
notes: NlpI, outer membrane lipoprotein of E. coli, 'Soluble NlpI construct'; Bait on Ni-NTA beads; also called oligohistidine-tagged-NlpI; source: purified from overexpression strain according to published procedures [55]; (plasmid pET28a-His-NlpI); not shown: His, N-terminal, kept
On to B3, for which the binding result in [9] is given as “binds”.

B4: PBP1A, purified (full length His-PBP1A) (enzyme)
chain: MKFVKYFLILAVCCILLGAGSIYGLYRYIEPQLPDVATLKDVRLQIPMQIYSADGELIAQYGEKRRIPVTLDQIPPEMVKAFIATEDSRFYEHHGVDPVGIFRAASVALFSGHASQGASTITQQLARNFFLSPERTLMRKIKEVFLAIRIEQLLTKDEILELYLNKIYLGYRAYGVGAAAQVYFGKTVDQLTLNEMAVIAGLPKAPSTFNPLYSMDRAVARRNVVLSRMLDEGYITQQQFDQTRTEAINANYHAPEIAFSAPYLSEMVRQEMYNRYGESAYEDGYRIYTTITRKVQQAAQQAVRNNVLDYDMRHGYRGPANVLWKVGESAWDNNKITDTLKALPTYGPLLPAAVTSANPQQATAMLADGSTVALSMEGVRWARPYRSDTQQGPTPRKVTDVLQTGQQIWVRQVGDAWWLAQVPEVNSALVSINPQNGAVMALVGGFDFNQSKFNRATQALRQVGSNIKPFLYTAAMDKGLTLASMLNDVPISRWDASAGSDWQPKNSPPQYAGPIRLRQGLGQSKNVVMVRAMRAMGVDYAAEYLQRFGFPAQNIVHTESLALGSASFTPMQVARGYAVMANGGFLVDPWFISKIENDQGGVIFEAKPKVACPECDIPVIYGDTQKSNVLENNDVEDVAISREQQNVSVPMPQLEQANQALVAKTGAQEYAPHVINTPLAFLIKSALNTNIFGEPGWQGTGWRAGRDLQRRDIGGKTGTTNSSKDAWFSGYGPGVVTSVWIGFDDHRRNLGHTTASGAIKDQISGYEGGAKSAQPAWDAYMKAVLEGVPEQPLTPPPGIVTVNIDRSTGQLANGGNSREEYFIEGTQPTQQAVHEVGTTIIDNGEAQELF
With B4, the Kd in experiment [6] stood at 0.067 µM; in experiment [7] it was 0.24 µM.

B5: LpoA^N, N-terminal domain of LpoA (residues G28-T256) (domain or fragment)
chain: GTHTPDQSTAYMQGTAQADSAFYLQQMQQSSDDTRINWQLLAIRALVKEGKTGQAVELFNQLPQELNDAQRREKTLLAVEIKLAQKDFAGAQNLLAKITPADLEQNQQARYWQAKIDASQGRPSIDLLRALIAQEPLLGAKEKQQNIDATWQALSSMTQEQANTLVINADENILQGWLDLQRVWFDNRNDPDMMKAGIADWQKRYPNNPGAKMLPTQLVNVKAFKPAST
B5: the results for the Kd in experiment [6] and in experiment [7] were 0.954 µM and 0.017 µM, respectively.

Broadly, the stoichiometry N is the number of molecules, sites or subunits per partner or assembly.
